Source: publication doi:10.1101/2025.06.14.659634 (bioRxiv, 2025)

B1: erlin2 with a C-terminal Flag tag, overexpressed alone (natural protein, human, UniProt O94905 1-339, looked up)
chain: MAQLGAVVAVASSFFCASLFSAVHKIEEGHIGVYYRGGALLTSTSGPGFHLMLPFITSYKSVQTTLQTDEVKNVPCGTSGGVMIYFDRIEVVNFLVPNAVYDIVKNYTADYDKALIFNKIHHELNQFCSVHTLQEVYIELFDQIDENLKLALQQDLTSMAPGLVIQAVRVTKPNIPEAIRRNYELMESEKTKLLIAAQKQKVVEKEAETERKKALIEAEKVAQVAEITYGQKVMEKETEKKISEIEDAAFLAREKAKADAECYTAMKIAEANKLKLTPEYLQLMKYKAIASNSKIYFGKDIPNMFMDSAGSVSKQFEGLADKLSFGLEDEPLETATKEN
B2: erlin1 with a C-terminal Flag tag, overexpressed alone (natural protein, human, UniProt O75477 1-348, looked up)
chain: MNMTQARVLVAAVVGLVAVLLYASIHKIEEGHLAVYYRGGALLTSPSGPGYHIMLPFITTFRSVQTTLQTDEVKNVPCGTSGGVMIYIDRIEVVNMLAPYAVFDIVRNYTADYDKTLIFNKIHHELNQFCSAHTLQEVYIELFDQIDENLKQALQKDLNLMAPGLTIQAVRVTKPKIPEAIRRNFELMEAEKTKLLIAAQKQKVVEKEAETERKKAVIEAEKIAQVAKIRFQQKVMEKETEKRISEIEDAAFLAREKAKADAEYYAAHKYATSNKHKLTPEYLELKKYQAIASNSKIYFGSNIPNMFVDSSCALKYSDIRTGRESSLPSKEALEPSGENVIQNKESTG
B3: erlin1 fused with a twin-Strep tag, co-expressed with erlin2 through a P2A sequence (natural protein, human, UniProt O75477 1-348, looked up)
chain: B2 chain
modifications: N108 glycosylated (seen in the density map); intramolecular disulfide bond C78-C130

Legend:
[1] = biological target: the molecule itself; experiment: glycerol density gradient centrifugation
[2] = biological target: the molecule itself; experiment: cryo-EM structure

| Protein | binding result [1] | binding result [2] |
| --- | --- | --- |
| B1 | binds |  |
| B2 | binds |  |
| B3 |  | binds |
